How the values were obtained:
[1] = biological target: T1, p75 on A875 human melanoma cells (human, UniProt P08138 29-427); assay: 125I-hNGF displacement, A875 cells (p75), 4 C
T1 construct: whole, on cells; also called A875-p75
T1 sequence (looked up): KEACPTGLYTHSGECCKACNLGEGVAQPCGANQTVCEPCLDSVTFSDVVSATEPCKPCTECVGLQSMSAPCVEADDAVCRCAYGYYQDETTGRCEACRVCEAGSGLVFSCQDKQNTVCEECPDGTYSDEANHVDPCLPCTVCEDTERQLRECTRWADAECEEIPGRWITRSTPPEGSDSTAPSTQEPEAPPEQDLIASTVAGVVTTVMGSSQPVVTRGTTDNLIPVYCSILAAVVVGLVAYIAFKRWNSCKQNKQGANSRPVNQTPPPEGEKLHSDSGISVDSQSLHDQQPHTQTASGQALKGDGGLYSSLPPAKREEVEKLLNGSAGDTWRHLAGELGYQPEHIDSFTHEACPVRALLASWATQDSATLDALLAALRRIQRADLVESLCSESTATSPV

[2] = biological target: T2, rat trkA recombinantly expressed on NIH3T3 cells (rat, UniProt P35739 33-799); assay: 125I-hNGF displacement, NIH3T3-trkA cells, 4 C
T2 construct: whole, on cells; also called NIH3T3-trkA; p140trkA

[3] = biological target: T2, rat trkA recombinantly expressed on …; assay: cell-based or functional assay
[4] = biological target: trkA on parental PC12 cells (rat, UniProt P35739 33-799); assay: cell-based or functional assay
Chain of trkA on parental PC12 cells (P35739 33-799): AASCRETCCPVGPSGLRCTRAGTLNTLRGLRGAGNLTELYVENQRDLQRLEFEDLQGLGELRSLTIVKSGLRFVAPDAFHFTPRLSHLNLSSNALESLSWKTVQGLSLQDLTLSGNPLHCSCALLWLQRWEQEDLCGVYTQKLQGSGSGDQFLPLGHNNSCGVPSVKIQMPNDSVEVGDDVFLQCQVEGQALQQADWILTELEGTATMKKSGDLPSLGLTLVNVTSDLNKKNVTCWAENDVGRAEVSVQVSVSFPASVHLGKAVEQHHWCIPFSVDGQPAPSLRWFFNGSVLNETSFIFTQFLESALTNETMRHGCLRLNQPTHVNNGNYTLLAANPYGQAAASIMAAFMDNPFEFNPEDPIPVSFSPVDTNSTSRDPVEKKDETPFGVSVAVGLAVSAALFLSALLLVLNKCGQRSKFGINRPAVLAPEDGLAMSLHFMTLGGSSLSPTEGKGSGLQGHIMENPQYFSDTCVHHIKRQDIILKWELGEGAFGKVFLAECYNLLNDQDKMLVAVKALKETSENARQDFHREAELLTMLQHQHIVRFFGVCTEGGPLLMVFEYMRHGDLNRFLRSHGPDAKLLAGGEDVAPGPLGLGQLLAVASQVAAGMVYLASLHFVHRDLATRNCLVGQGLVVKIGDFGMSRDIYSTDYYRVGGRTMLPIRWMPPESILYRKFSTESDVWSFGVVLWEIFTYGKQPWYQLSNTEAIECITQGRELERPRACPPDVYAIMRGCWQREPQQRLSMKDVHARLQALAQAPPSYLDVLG

T2 sequence (P35739 33-799): as above

B1: hNGF Mut 5 (hBDNF N-terminal chimeric mutant) (ligand)
chain: HSDPAHRGEFSVCDSVSVWVGDKTTATDIKGKEVMVLGEVNINNSVFKQYFFETKCRDPNPVDSGCRGIDSKHWNSYCTTTHTFVKALTMDGKQAAWRFIRIDTACVCVLSRKAVRRA
IC50 [1]: 0.21 nM | IC50 mut/NGF [1]: 1 ratio | IC50 mut/NGF [2]: > 40 ratio | trkA autophosphorylation, maximal level at 1 × 10^-8 M, mutant/hNGF [3]: 0.07 ratio | PC12 neurite outgrowth EC50 [4]: 0.016 µg/mL | PC12 neurite outgrowth EC50 mutant/hNGF [4]: 114 ratio

From patent US7144983 (Genentech, dated 2006)
